This sample holds only a part of the variants without activity.
B1: TPR 5TU (parent)
chain: GGAUCUUCUCGAUCUAACAAAAAAGACAAAUCUGCCACAAAGCUUGAGAGCAUCUUCGGAUGCAGAGGCGGCAGCCUUCGGUGGCGCGAUAGCGCCAACGUUCUCAACUAUGACACGCAAAACGCGUGCUCCGUUGAAUGGAGUUUAUCAUG

Variants of: B1
Assay: polymerase ribozyme fitness, log enrichment relative to wild type (log ratio); higher = more active; in vitro selection for triplet polymerase activity
In short: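 Fitness is a logarithmic measure of how a genotype enriched relative to the wild type, with replicate averages weighted by inverse variance. The logarithm uses base 2, and enrichment came from Illumina sequencing of input and output libraries. Those libraries were PCR-built, transcribed mutants of each subunit of a heterodimeric triplet polymerase ribozyme, passed through one triplicate in vitro selection round that included frozen incubation at −7 °C, gel excision of extended constructs and streptavidin-bead capture. Genotypes were kept only if they had ≥10 input reads and ≥1 read per output.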

Row | Variant | polymerase ribozyme fitness (log ratio)
1 | GGAUCUUCUCGAUCUAACAAAAAAGACAAAUCUGCCACAAAGCUUGAGGGCAUCUUCGGUUGCAGAGGCGGCAGCCUCCGGUGGCGCGAUAGCGACAACGUUCUCAACUAUGACACGCAAAACGCGUGCUCCGUUGAAUGGCGUUUAUCAUG [A49G A60U U78C C95A A142C] | ≤ -4.2
2 | GGAUCUUCUCGAUCUAACAAAAAAGACAAAUCUGCCACAAAGCUUGAGCGCAUCUUCAGAUGCAGAGGCGGCAGCCUUCGGUGGCGCGAUAGCGCCAACGUUCUCAACUAUGACACGCAAAACGCGUGCUCCGUUGAAUGGAGUUUAUCAUG [A49C G58A] | -4.08
3 | GGAUCUUCUCGAUCUAACAAAAAAGACAAAUCUGCCACAAAGCUUGAGCGCAUCUUCGGAUGCAGAGGCGCCAGCCUUCGGUGGCGCGAUAGCGCCAACGUUCUCAACUAUGACACGCAAAACGCGUGCUCCGUUGAAUGGAGUUUAUCAUG [A49C G71C] | ≤ -4.2
4 | GGAUCUUCUCGAUCUAACAAAAAAGACAAAUCUGCCACAAAGCUUGAGCGCAUCUUCGGAUGCAGAGGCGGCAGCCUUCGGUGGCGCGAUAGCGCAAACGUGCUCAACUAUGACACGCAAAACGCGUGCUCCGUUGAAUGUAGUUUAUCAUG [A49C C96A U102G G141U] | 0.794
5 | GGAUCUUCUCGAUCUAACAAAAAAGACAAAUCUGCCACAAAGCUUGAGCGCAUCUUCGGAUGCAGAGGCGGCAGCCUUCGGUGGCGGGAUAGCGCCAACGUUCUCAACUAUGACACGCAAAACGCGUGCUCCGUUGAAUGGAGUUUAUCAUG [A49C C87G] | ≤ -4.2
6 | GGAUCUUCUCGAUCUAACAAAAAAGACAAAUCUGCCACAAAGCUUGAGCGCAUUUUCGGAUGCAGAGGCGGCAGCCUUCGGUGACGCGAUAGCGCCAACGUUUUCAACUAUGACAGGCAAAACGCGUGCGCCGUUGAAUGGAGUUUAUCAUG [A49C C54U G84A C103U C116G U130G] | ≤ -4.2
7 | GGAUCUUCUCGAUCUAACAAAAAAGACAAAUCUGCCACAAAGCUUGAGCGCAUCUUCGGAUGCAGAGGCGGCAGCCUUCUGUGGCGCGAUAGCGCCAACGUUCUCAACUAUGACACGCAAAACGCGUGCUCCGUUGAAUGGAGUUUAUCAUG [A49C G80U] | -4.02
8 | GGAUCUUCUCGAUCUAACAAAAAAGACAAAUCUGCCACAAAGCUUGAGCGCAUCUUCGGAUGCAGAGGCGGCAGCCUUCGGUGGCGCGAUAGCGCCAACGUUAUCAACUAUGACACGCAAAACGCGUGCUCCGUUGAAAGGAGUUUAUCAUG [A49C C103A U139A] | ≤ -4.2
9 | GGAUCUUCUCGAUCUAACAAAAAAGACAAAUCUGCCACAAAGCUUGAGCGCAUCUUCGGAUGCAGAGGCGGCAGCCUUCGGUCGCGCGAUAGCGGCAACGAUCUCAACUAUGACACGCAAAACGCGUGCUCCGUUGAAUGGAGUUUAUCAUG [A49C G83C C95G U101A] | ≤ -4.2
10 | GGAUCUUCUCGAUCUAACAAAAAAGACAAAUCUGCCACAAAGCUUGAGCGCAUCUUCGGAUGCAGAGGCGGCAGCCUUCGGUGGCGCGAUAGCGCCAAUGUGCUCAACAAUGACACGCAAAACGCGUGCUCCGUUGAAUGGAGUUUAUCAUG [A49C C99U U102G U109A] | -2.46
11 | GGAUCUUCUCGAUCUAACAAAAAAGACAAAUCUGCCACAAAGCUUGAGCGCAUCUUCGGAUGCAGAGGCGGCAGCCUUCGGUGGCGCGAUAGCGCCAACGUUCUCAACUAUGACACGCAAAACGCGUGCUCCGUUGAAUGGAGUUUAACAUG [A49C U148A] | ≤ -4.2
12 | GGAUCUUCUCGAUCUAACAAAAAAGACAAAUCUGCCACAAAGCUUGAGCGCAUCUUUGGGUGCAGAGGCGGCAGCUUUCGGUGGCGCGAUAGCGCCAACGUUCUCAACUAUGACACGAAAAACGCGUGCUCCGUUGAAUGGAGUUUAUCAUG [A49C C57U A60G C76U C118A] | ≤ -4.2
13 | GGAUCUUCUCGAUCUAACAAAAAAGACAAAUCUGCCACAAAGCUUGAGCGCAUCUUCGGAUGCAGAGGCGGCAGCGUUCGGUGGCGCGAUAGCGUCAACGUUCUCAACUAUGAAACGCAAAACGCGUGCUCCGUUGAAUGGAUUUUAUCAUG [A49C C76G C95U C114A G143U] | ≤ -4.2
14 | GGAUCUUCUCGAUCUAACAAAAAAGACAAAUCUGCCACAAAGCUUGAGCGCAUCUUCGGAUGCAGAGGCUGCAGCCUUCGGUGGCGCGAUAGCGCCUACGUUCUCAGCUAUGACACGCAAAACGCGUUCUCCGUUAAAAGGAGUUUAUCAUG [A49C G70U A97U A107G G128U G136A U139A] | ≤ -4.2
15 | GGAUCUUCUCGAUCUAACAAAAAAGACAAAUCUGCCACAAAGCUUGAGCGCAUCUUCGGAUGCAGAGGCGGCAGCCUUCGGUGGCGAGAUAGCGACAACGUUCUCAACUAUGACACGCAAAAAGCGUGCUCCGUUGAAUGGAGUUUAUCAUG [A49C C87A C95A C123A] | ≤ -4.2
16 | GGAUCUUCUCGAUCUAACAAAAAAGACAAAUCUGCCACAAAGCUUGAGCGCAUCUUCGGAUGCAGAGGCGGCAGCCUUCGGUGGCGCGAUAGCGCUAACGUUCUCAACUAUGACACGCAAAACGCGUGCUCCGUUGAAUGGAGUUUAUCAUG [A49C C96U] | -3.23
17 | GGAUCUUCUCGAUCUAACAAAAAAGACAAAUCUGCCACAAAGCUUGAGCUCAUCUUCGGAUGCCGAGGCGGCUGCCUUCGGUGGCGAGAUAGCGCCAACGUUCUCAACUAUGACGCGGAAAACGCGUGCUCCGUUGAAUGGAGUUUAUCAUG [A49C G50U A64C A73U C87A A115G C118G] | ≤ -4.2
18 | GGAUCUUCUCGAUCUAACAAAAAAGACAAAUCUGCCACAAAGCUUGAGGGCAUCUUCGGAUGCAGAGGCGGCAGCCUUCGGUGGCGCGAUGUCGCCAACGUUCUCAACUAUGACACGCAAAACGCGUGCUCCGUUGAUUGGAGCUUAUCAUG [A49G A91G G92U A138U U144C] | ≤ -4.2
19 | GGAUCUUCUCGAUCUAACAAAAAAGACAAAUCUGCCACAAAGCUUGAGCGCAUCUUCGGAAGCAGAGGCGGCAGCCUUCGGUGGCACGUUAGCGCCAACGUUCUCAACUAUGACACGCAAAACGCGUGCUCCGUUGAUUGGAGUUUAUCAUG [A49C U61A G86A A89U A138U] | ≤ -4.2

Reference: the RNAGym collection of RNA variant scans (doi:10.1073/pnas.2313332121)
